Patent US20050181450A1, “Novel inositol 1,4,5-trisphosphate (IP3) receptor-binding protein and an IP3 indicator” (priority 2002, published 2005)

Assays:
IP3R1 = molecular target: T1, IP3R1 (Mus musculus, UniProt P11881, N1264K/P2675L); assay: Co-immunoprecipitation from mouse cerebellar crude microsome; format: binding; settings: detergent extract of mouse cerebellar crude microsome
T1 construct: from tissue; host or cells: mouse cerebellum, detergent extract of crude microsome
Protocol: The detergent extract of mouse cerebellar crude microsome was immunoprecipitated with anti-IRBIT antibody or control antibody. The immunoprecipitates were subjected to SDS-PAGE followed by Western blotting with anti-IP3R1 antibody (upper panel) or anti-IRBIT (lower panel) antibody.
Detergent-solubilized extract from the crude microsome was prepared with 1% Nonidet P-40-containing 50 mM Hepes (pH 7.4), 1 mM MgCl2, and protease inhibitors for 30 minutes at 4° C., and centrifuged at 20,000×g for 30 minutes. The supernatant was diluted 10-fold in an immunoprecipitation buffer (10 mM Hepes (pH 7.4), 150 mM NaCl, 1 mM MgCl2, and 1% Nonidet P-40) and incubated with rabbit anti-IRBIT antibody (3 μg) or control rabbit IgG (3 μg) for 2 hours at 4° C. Protein G Sepharose 4 fast flow (Amersham Pharmacia Biotech) was added for reaction with immune complexes for 2 hours at 4° C. Resins were washed three times with an immunoprecipitation buffer and subjected to Western blotting with anti-IRBIT antibody or mouse anti-IP3R1 antibody KM1112 (47).

[1] = molecular target: T2, type II phosphatidylinositol phosphate kinase α (Homo sapiens, UniProt P48426); assay: Co-immunoprecipitation in Cos-7 cells with Myc-PIPKII α; format: binding; settings: overexpressing Cos-7 cells
T2 construct: expressed in transfected cells; host or cells: Cos-7
T2 sequence (P48426 1-406): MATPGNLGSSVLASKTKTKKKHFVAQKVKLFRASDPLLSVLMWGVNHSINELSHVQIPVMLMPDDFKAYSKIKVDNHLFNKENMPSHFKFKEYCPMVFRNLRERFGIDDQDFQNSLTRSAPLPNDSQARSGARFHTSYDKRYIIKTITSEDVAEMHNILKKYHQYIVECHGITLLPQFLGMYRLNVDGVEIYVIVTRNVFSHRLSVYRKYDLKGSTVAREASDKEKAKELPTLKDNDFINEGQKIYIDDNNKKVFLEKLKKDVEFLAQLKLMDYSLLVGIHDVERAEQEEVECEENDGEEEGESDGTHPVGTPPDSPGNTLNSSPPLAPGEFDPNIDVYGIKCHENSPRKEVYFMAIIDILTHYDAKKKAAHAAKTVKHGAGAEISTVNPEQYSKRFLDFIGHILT
Protocol: (§1) (A and B) IRBIT was transfected into Cos-7 cells with Myc-tagged type II phosphatidylinositol phosphate kinase α, β or γ (PIPKII α, β or γ). After two days, cells were lysed in lysis buffer, followed by centrifugation (100,000×g, 30 min). The supernatants were incubated with 3 μg of anti-IRBIT antibody, rabbit IgG, mouse anti-Myc antibody, or mouse IgG for 1 h at 4° C. After adding 5 μl of Protein G beads and another 1-h incubation, the beads were washed five times with lysis buffer and analyzed by Western blotting with anti-IRBIT antibody or HRP conjugated anti-Myc antibody. Immunoprecipitation of Myc-PIPKII α, β or γ with anti-Myc antibody co-precipitated IRBIT (A). In the reciprocal experiments, immunoprecipitation of IRBIT with anti-IRBIT antibody precipitated Myc-PIPKII α, β or γ.
as §1, with “IRBIT” for “(A and B) IRBIT”, “antibody.” for “antibody. Immunoprecipitation of Myc-PIPKII α, β or γ with anti-Myc antibody co-precipitated IRBIT (A). In the reciprocal experiments, immunoprecipitation of IRBIT with anti-IRBIT antibody precipitated Myc-PIPKII α, β or γ.”

T1 sequence (P11881 whole entry N1264K/P2675L): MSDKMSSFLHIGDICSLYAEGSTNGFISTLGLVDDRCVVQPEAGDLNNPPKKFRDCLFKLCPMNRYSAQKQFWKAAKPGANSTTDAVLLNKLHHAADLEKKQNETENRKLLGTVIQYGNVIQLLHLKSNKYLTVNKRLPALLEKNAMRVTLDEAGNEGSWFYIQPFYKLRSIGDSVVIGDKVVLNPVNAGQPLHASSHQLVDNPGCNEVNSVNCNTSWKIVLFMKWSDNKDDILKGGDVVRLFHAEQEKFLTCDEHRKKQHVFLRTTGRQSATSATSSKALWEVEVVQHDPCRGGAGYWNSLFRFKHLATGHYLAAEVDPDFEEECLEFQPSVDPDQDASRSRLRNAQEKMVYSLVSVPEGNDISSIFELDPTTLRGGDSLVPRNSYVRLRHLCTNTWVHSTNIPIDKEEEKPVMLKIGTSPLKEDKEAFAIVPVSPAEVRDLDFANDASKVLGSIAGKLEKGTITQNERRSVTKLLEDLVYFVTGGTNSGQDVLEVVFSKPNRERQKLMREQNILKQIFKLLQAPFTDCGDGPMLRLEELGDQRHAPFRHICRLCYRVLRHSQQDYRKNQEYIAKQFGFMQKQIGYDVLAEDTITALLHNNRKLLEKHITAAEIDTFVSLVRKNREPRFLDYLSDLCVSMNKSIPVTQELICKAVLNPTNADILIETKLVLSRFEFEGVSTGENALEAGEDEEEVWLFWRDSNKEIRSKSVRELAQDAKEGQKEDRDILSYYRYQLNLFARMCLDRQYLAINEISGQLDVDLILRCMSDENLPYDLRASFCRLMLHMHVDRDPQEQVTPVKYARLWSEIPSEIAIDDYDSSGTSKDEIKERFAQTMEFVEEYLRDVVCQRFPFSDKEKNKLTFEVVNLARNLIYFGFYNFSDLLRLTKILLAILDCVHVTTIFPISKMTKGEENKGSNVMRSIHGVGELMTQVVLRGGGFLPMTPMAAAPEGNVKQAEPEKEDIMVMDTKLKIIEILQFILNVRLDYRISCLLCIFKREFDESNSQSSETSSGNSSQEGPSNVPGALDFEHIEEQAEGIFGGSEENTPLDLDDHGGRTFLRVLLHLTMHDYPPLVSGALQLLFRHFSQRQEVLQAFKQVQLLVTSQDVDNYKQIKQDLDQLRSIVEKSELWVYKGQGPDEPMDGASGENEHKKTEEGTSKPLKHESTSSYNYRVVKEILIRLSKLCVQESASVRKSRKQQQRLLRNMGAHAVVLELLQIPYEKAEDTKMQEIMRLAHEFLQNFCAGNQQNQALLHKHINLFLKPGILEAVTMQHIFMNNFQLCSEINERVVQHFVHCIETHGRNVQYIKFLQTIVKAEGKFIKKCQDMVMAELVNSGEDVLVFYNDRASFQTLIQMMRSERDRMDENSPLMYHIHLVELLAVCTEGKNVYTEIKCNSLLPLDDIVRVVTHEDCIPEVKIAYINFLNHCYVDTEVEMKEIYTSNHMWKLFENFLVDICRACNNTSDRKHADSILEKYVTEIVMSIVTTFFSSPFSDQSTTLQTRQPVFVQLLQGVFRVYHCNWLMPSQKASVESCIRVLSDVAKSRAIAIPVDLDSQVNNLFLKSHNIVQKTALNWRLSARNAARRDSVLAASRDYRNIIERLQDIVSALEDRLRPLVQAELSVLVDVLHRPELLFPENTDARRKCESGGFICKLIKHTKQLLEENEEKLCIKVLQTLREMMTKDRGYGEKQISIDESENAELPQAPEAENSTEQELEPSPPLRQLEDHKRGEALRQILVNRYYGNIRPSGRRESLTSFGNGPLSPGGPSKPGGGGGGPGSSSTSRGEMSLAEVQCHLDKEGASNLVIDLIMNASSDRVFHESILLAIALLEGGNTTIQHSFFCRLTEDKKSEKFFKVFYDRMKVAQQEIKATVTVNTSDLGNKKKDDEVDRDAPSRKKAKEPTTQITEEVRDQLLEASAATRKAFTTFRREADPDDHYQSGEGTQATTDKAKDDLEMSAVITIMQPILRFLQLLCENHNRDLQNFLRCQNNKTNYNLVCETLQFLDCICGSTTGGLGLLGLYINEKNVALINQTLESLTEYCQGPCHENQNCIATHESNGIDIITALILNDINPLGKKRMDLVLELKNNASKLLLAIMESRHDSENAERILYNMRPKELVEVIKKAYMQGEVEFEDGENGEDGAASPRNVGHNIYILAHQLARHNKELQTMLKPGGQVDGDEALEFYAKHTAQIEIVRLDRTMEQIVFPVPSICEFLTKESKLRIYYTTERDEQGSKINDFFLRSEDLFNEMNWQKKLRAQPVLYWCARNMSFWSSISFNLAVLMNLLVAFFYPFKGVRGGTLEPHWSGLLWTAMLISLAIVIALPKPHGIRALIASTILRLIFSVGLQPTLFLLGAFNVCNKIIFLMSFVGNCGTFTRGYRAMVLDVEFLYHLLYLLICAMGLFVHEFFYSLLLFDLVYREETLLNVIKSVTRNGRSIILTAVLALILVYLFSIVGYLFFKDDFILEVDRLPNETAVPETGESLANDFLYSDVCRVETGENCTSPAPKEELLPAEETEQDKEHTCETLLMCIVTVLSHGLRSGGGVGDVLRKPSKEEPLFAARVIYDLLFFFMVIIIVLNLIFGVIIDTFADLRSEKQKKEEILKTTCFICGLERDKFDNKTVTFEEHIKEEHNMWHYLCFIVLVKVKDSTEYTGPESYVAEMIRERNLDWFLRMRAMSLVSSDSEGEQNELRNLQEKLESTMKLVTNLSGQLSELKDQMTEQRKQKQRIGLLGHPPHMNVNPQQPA

B1: IRBIT: novel IP3 receptor-binding protein of 530 amino acids, SEQ ID NO: 1 (protein, listed as Mus musculus)
chain: MSMPDAMPLPGVGEELKQAKEIEDAEKYSFMATVTKAPKKQIQFADDMQEFTKFPTKTGRRSLSRSISQSSTDSYSSAASYTDSSDDEVSPREKQQTNSKGSSNFCVKNIKQAEFGRREIEIAEQDMSALISLRKRAQGEKPLAGAKIVGCTHITAQTAVLIETLCALGAQCRWSACNIYSTQNEVAAALAEAGVAVFAWKGESEDDFWWCIDRCVNMDGWQANMILDDGGDLTHWVYKKYPNVFKKIRGIVEESVTGVHRLYQLSKAGKLCVPAMNVNDSVTKQKFDNLYCCRESILDGLKRTTDVMFGGKQVVVCGYGEVGKGCCAALKALGAIVYITEIDPICALQACMDGFRVVKLNEVIRQVDVVITCTGNKNVVTREHLDRMKNSCIVCNMGHSNTEIDVTSLRTPELTWERVRSQVDHVIWPDGKRVVLLAEGRLLNLSCSTVPTFVLSITATTQALALIELYNAPEGRYKQDVYLLPKKMDEYVASLHLPSFDAHLTELTDDQAKYLGLNKNGPFKPNYYRY
IP3R1
  co-immunoprecipitation of IP3R1 with anti-IRBIT antibody: co-immunoprecipitated
[1]
  interaction with PIPKII α: interacted
